These results are taken from the DeepSol protein solubility set.

This data set in a line: soluble on expression in E. coli; label from the status in PepcDB or PDB records.
“MGSSHHHHHHSSGLVPRGSHMTRSKVAIIGGGPAGSVAGLTLHKLGHDVTIYERSAFPRYRVGESLLPGTMSILNRLGLQEKIDAQNYVKKPSATFLWGQDQAPWTFSFAAPKVAPWVFDHAVQVKREEFDKLLLDEARSRGITVHEETPVTDVDLSDPDRVVLTVRRGGESVTVESDFVIDAGGSGGPISRKLGVRQYDEFYRNFAVWSYFKLKDPFEGDLKGTTYSITFEDGWVWMIPIKDDLYSVGLVVDRSKSAEVREQGADAFYSSTLAKCAKAMDILGGAEQVDEVRIVQDWSYDTEVFSADRFFLCGDAACFTDPLFSQGVHLASQSAVSAAAAIDRITRHGDEKDAVHAWYNRTYREAYEQYHQFLASFYTFASFTEPDSEFWRKRRITESDDDRLTRKKWFESLAGNGPEDPSGTVASFRDRASTMIAIGRHQRPELSDDFSEAELNPARVRWISDLTKRLNSITRFKWTGGKAVLKQHYRVEPIGFRLEQREVLANGEGLDMAQYPMDDEARQIFQDLAEEEFGYKTLVKRLGAVGRQELSTQIVVRLMEAGLLTGYDAQGEKVFVQGRLHFGGVGVEYEV”: the “soluble on expression in E. coli” value is on record as “soluble”.
Turning to “MGSSHHHHHHSSGLVPRGSMNNIYPLVICGPSGVGKGTLIKKLLNEFPNYFYFSVSCTTRKKREKEKEGVDYYFIDKTIFEDKLKNEDFLEYDNYANNFYGTLKSEYDKAKEQNKICLFEMNINGVKQLKKSTHIKNALYIFIKPPSTDVLLSRLLTRNTENQEQIQKRMEQLNIELHEANLLNFNLSIINDDLTLTYQQLKNYLLNSYIHLNNHTRN”, the “soluble on expression in E. coli” value is given as “soluble”.
With “MGSSHHHHHHSSGLVPRGSMSTSWSDRLQNAADMPANMDKHALKKYRREAYHRVFVNRSLAMEKIKCFGFDMDYTLAVYKSPEYESLGFELTVERLVSIGYPQELLSFAYDSTFPTRGLVFDTLYGNLLKVDAYGNLLVCAHGFNFIRGPETREQYPNKFIQRDDTERFYILNTLFNLPETYLLACLVDFFTNCPRYTSCETGFKDGDLFMSYRSMFQDVRDAVDWVHYKGSLKEKTVENLEKYVVKDGKLPLLLSRMKEVGKVFLATNSDYKYTDKIMTYLFDFPHGPKPGSSHRPWQSYFDLILVDARKPLFFGEGTVLRQVDTKTGKLKIGTYTGPLQHGIVYSGGSSDTICDLLGAKGKDILYIGDHIFGDILKSKKRQGWRTFLVIPELAQELHVWTDKSSLFEELQSLDIFLAELYKHLDSSSNERPDISSIQRRIKKVTHDMDMCYGMMGSLFRSGSRQTLFASQVMRYADLYAASFINLLYYPFSYLFRAAHVLMPHESTVEHTHVDINEMESPLATRNRTSVDFKDTDYKRHQLTRSISEIKPPNL” the entry was “soluble”; with “MGSSHHHHHHSSGRENLYFQGMVKNYVLDTNVLIHDPDSIFSFEDNNVIIPLPVLEELDKLKREHGSVGKNAREVIRHLDELRKKGNLRKGIPLENGGILRVMVLEREVENVPRFLHERYVDNIILAYVIELMNREKIPTILVSKDINLRVKADSLGIPAQDYLTDRSELETMPKGYVEIDDEELKKQLKVKVTVEKKLDLLDNFYIDLGGVYGKYRKGKVLRVEPFETMGISPRNREQIFSMDALLDDEIPLVFLVGIAGTGKTLLALACGLYKVLVEKRYKKLIVTRPTVPMGRDIGYLPGELEKKMKPWLQPIMDNLELISSLSGLKIKELEKQEILEVEAISFIRGRSIPKQFIIIDEAQNLTPHEVKTILTRVGEDTKIVLVGDPYQIDTPYLDKDTNGLVYAALKLLESDLSAVIKLEKGERSRLATIAAELL”, “soluble”.
With “MGSSIASSLMDPTQYYSQFISLQKASLEKAKTPYQNQISSYQSRIDLYASLKNALSDSLKTMSSFTTYESKTKLATSSNETSFTVSSTSSSVNGSYSIEVQNLATADT” the entry was “not soluble”; with “MGSVSTGNAGSGTVGTSTTSRADVMTFQPSSLPVSYVGETYNVQVGVTGGVGPYGYRLTAGTLPPGLKFAGGALSGTPTKAGSYSFAIQATDANLSTRVQEYTMNVDALPPLALKPTLPPGEIRGETRIPVTIQAPRAVRAARLSWDLGKDVQVTRVQPADAGSVVFWQQRGSVLTVDLGFRTVPRPDARIALITVKPAKAVTLKADALGYEARDGSGKMLVDKKRPGSEPVKPAEQPGDPKVDPKAADQKATDQKATDPKTVDPKTVTPADTVEGGPLPSPALPTPSLPPTLPPVTTPPANTPPVPTPTPPANQPAPAPAPQPAPAPQPTPPSGTGGALEHHHHHH”, “not soluble”; with “MGSYSSDDVEVIREAGRAQGLATILAIGTATPPNCVAQADYADYYFRVTKSEHMVDLKEKFKRICEKTAIKKRYLALTEDYLQENPTMCEFMAPSLNARQDLVVTGVPMLGKEAAVKAIDEWGLPKSKITHLIFCTTAGVDMPGADYQLVKLLGLSPSVKRYMLYQQGCAAGGTVLRLAKDLAENNKGSRVLIVCSEITAILFHGPNENHLDSLVAQALFGDGAAALIVGSGPHLAVERPIFEIVSTDQTILPDTEKAMKLHLREGGLTFQLHRDVPLMVAKNIENAAEKALSPLGITDWNSVFWMVHPGGRAILDQVERKLNLKEDKLRASRHVLSEYGNLISACVLFIIDEVRKRSMAEGKSTTGEGLDCGVLFGFGPGMTVETVVLRSVRVTAAVANGN”, “soluble”.
In the case of “MGTEVSTSPTSLIDQTVVPGDVVLDLSNMTNQTIKLGSGLRQDNEVISVMRAGKLRYSKPNKYWVESSHKRYVPRPEDHVLGIVVDCKGENYWIDIKGPQLALLPVLAFEGANRRNYPKFEVSTLLYTRVVKTNTGMNPELSCVDESGKAAGFGPLKDGFMFETSTGLSRMLLSSPTCPVLEALGKKLSFETAFGLNGRCWVHAAAPRIVIIVANALMNSETLSGTQQRIMVEKLLEKISD”, the “soluble on expression in E. coli” value is “soluble”.
As to “MGTILDKIVNQKKKEVAALYETYTPVKEKRKTRSLVKALEQFTVIAEVKRASPSKGDINLHVDVRKQVKTYEECGAGAVSVLTDGQFFKGSFYDLQTAREESSIPLLCKDFIIDKIQIDRAYEAGADIILLIVAALTKEKLKELYSYVLEKGLEAIVEVHDEQELEIAIQLNPHVIGINNRNLKTFEVDLSQTEKLGKRLNEEKLLWISESGIHSKEDIIRVKRAGAKGVLVGEALMTSSSIHTFFEDCKVNI”, the “soluble on expression in E. coli” value is “not soluble”.
In the case of “MGTLSVNQNKLQKRLRRLAGEAVADFNMIEEGDKVMVCLSGGKDSYTLLDVLMHFQKVAPIRFDIVAVNMDQKQPGFPEHVLPAYLKELGVEYHIVEKDTHSVVKELIPEGKTTCSLCSRLRRGTLYTFADQIGATKMALGHHRDDIIETFFLNMFFNGALKAMPPKLRADDGRNVVIRPLAYCHEKDIQAYSDLKQFPIIPCNL”, the “soluble on expression in E. coli” value was “not soluble”.
With “MGTMHTSELLKHIYDINLSYLLLAQRLIVQDKASAMFRLGINEEMANTLGALTLPQMVKLAETNQLVCHFRFDDHQTITRLTQDSRVDDLQQIHTGIMLSTRLLNEVDDTARKKRA”, the “soluble on expression in E. coli” value is “not soluble”.
Under “MGTMVFVNFPVADVQRSTAFYEKLGFKKNEEFSTEEASSMMWDDQFWIMLLNHDFYGKFIQEKQIIDAQTTSGALISFSLESAEAVKQFGETAKANGGNCYRVDMGIPEEQMYGLEVQDLDGNSLEPVWMKM” stands “not soluble”.
With “MGVEKTIVGIAGKIAAGKTTVAKFLEELGFCRISCSEPLLDILTGNVSEYSWVPEVNFKGEPTRENLIELGRLLKEKYGEDILIRLAIDKLRRCKNIAIDGVRSLGEVEAIKRMGGIIIYIEARAEVRFERLRKRCSEKDRGIKTLQDLLRFDEWEERLYSTTNIKEKADFVILNEGSLEELKKKVREILREHSN” the entry was “not soluble”; with “MGVHVVLYQPEIPANTGNIARTCAATGTELHLIRPLGFSTDDKMLKRAGLDYWQHVKITYYDSIEEFYEKNKDGEFFYLTKYGEKAHTAFDYSKREKDYYFVFGRETNGLPANVIEENFDHCLRIPMTDKVRSLNLSNTAAILIYEAFRQQNYPGLDLEIVY”, “not soluble”; with “MGVMKGIEFSESKLKEILDQLPIEAQSAFAASCAQRIFTCYVEYARVAKSKKVDLDAYSEAISYVWNAVIAGNHDAIILNGLLERCMAVLPSEEDAWESGTPYAEDAAAAIIYSLRSLASGCPQEAIWAAKRVYEAVDNFVVNTYNVNTNATDGEKFILDHPIVSNELSRQLRDLNEIINSKRDSESLKKTIKIIMERSKSESNDLFSEAT”, “not soluble”.
Under “MGVTLAKGGNVSLSKAAPNLTQVMIGLGWDARSTTGAPFDLDASALLCREGRVLGDEWFVFYNQLKSPDGSVEHTGDNLTGEGEGDDESILVDLSTVPAQVDKIVFPVSIHEADNRGQTFGQVSNAFIRVVNQADGQELARYDLSEDASTETAMIFGEVYRYGGEWKFRAVGQGYASGLRGIVQDFGVSVS” stands “not soluble”; under “MGYVPIKNDYNEAQNKDSQSFLIMGLDNTIERKLGTTRTDAMMVITVNNKTKKITYLSLPRDSFVQIDAKNYQGMQRIEAAYTYDGPTASVNTVEKLLNIPINHYVVFNFLSFIKLIDAVGGIDVNVKQAFDGVTKDGPGSIHFDAGKQHLDGTKALSYARERHSDNDIMRGFRQQEIIQAVEDKLKSGQSIMKIMDIIDSLNGNIQTDVDSNELTHLVKEGLTWTNYDKQQLSFDWRTFSNEGRSMVELYPDSIENVRHQLRVSLNLEKPDERDQDGYVFHTNGEFLYQSDYTVQDEAAEENEMTSINGNTYIGVPGNTQTGPLPSVKTENGFIKLEHHHHHH”, “soluble”; under “MHCAENCIFCKIIAGDIPSAKVYEDEHVLAFLDISQVTKGHTLVIPKTHIENVYEFTDELAKQYFHAVPKIARAIRDEFEPIGLNTLNNNGEKAGQSVFHYHMHIIPRYGKGDGFGAVWKTHADDYKPEDLQNISSSIAKRLASS”, “soluble”.
For the sequence “MHCALLYSGGKDSTLAALLLDPFYDVTLVSGSFGVRDTDPAQESATAVGFDHVTVDLDPDVAHDAVKQMFDDGYPRNGIQRVHEHAVETVARADWVADADGLGTLDAVADGTRRDDRVPTVDRPLAQSIEDRFDVDYLAPLAGIGRGAIDAMAADRLVVESGPSAEIPKADYEVELRALLRKRYGEGAVADVFPEHTQSRVQGLR”, the “soluble on expression in E. coli” value is recorded as “not soluble”.
Under “MHHHHHHMKRKSIFKDKVFLFLNAKQYKKLSPAVLFGGGKTDLLMGELKDASVLDNPATCVIDVAMTESQLSESQSTQPWITSTLDLLQSKGLRTIPEAEIGLAVINVSTEIYCNPRR” stands “soluble”; under “MHHHHHHNEEFRPEMLQGKKVIVTGASKGIGREMAYHLSKMGAHVVLTARSEEGLQKVVSRCLELGAASAHYIAGTMEDMTFAEQFIVKAGKLMGGLDMLILNHITQTSLSLFHDDIHSVRRVMEVNFLSYVVMSTAALPMLKQSNGSIAVISSLAGKMTQPMIAPYSASKFALDGFFSTIRTELYITKVNVSITLCVLGLIDTETAMKEISGIINAQASPKEECALEIIKGTALRKSEVYYDKSPLTPILLGNPGRKIMEFFSLRYYNKDMFVSN”, “soluble”.
With “MHHHHHHQYKLALNGKTLKGETTTEAVDAATAEKVFKQYANDNGVDGEWTYDDATKTFTVTEGSQWQPQLQQLRDMGIQDDELSLRALQATGGDIQAALELIFAGGAP” the entry was “soluble”; with “MHHHHHHSSGRENLYFQGDPRRRNILRSLRRNTKKPKPKPRPSITKATWESNYFGVPLTTVVTPEKPIPIFIERCIEYIEATGLSTEGIYRVSGNKSEMESLQRQFDQDHNLDLAEKDFTVNTVAGAMKSFFSELPDPLVPYNMQIDLVEAHKINDREQKLHALKEVLKKFPKENHEVFKYVISHLNKVSHNNKVNLMTSENLSICFWPTLMRPDFSTMDALTATRTYQTIIELFIQQCPFFFYNR”, “soluble”.
